This test concerns the target chimeric TSH receptor (chimeric MC4 receptor) expressed on CHO-MC4 cells (human/rat chimera) (UniProt P16473). In words: cell-based or functional assay.

Chain of thyroid blocking monoclonal antibody K1-70 (VH): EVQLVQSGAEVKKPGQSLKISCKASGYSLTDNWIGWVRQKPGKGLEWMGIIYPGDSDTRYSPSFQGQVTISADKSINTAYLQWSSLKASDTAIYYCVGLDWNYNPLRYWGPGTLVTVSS
Chain of thyroid blocking monoclonal antibody K1-70 (VL): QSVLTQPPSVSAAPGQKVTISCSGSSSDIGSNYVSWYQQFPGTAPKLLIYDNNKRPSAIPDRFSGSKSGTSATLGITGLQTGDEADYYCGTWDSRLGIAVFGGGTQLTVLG

As for “human chorionic gonadotropin (from UniProt P01215 25-116; P0DN86 21-165) (ligand)”, the % inhibition, TBI assay, hCG 8000 mIU/ml in reaction buffer (no K1-70) was -7%; the % inhibition, TBI assay, hCG 16000 mIU/ml in reaction buffer (no K1-70) amounted to 0%; the RLU, TBI assay, hCG 8000 mIU/ml in reaction buffer (no K1-70) stood at 17500 RLU; the RLU, TBI assay, hCG 16000 mIU/ml in reaction buffer (no K1-70) worked out at 16500 RLU.

luteinizing hormone (ligand): the % inhibition, TBI assay, LH 20 mIU/ml in reaction buffer (no K1-70) is -5%; the % inhibition, TBI assay, LH 40 mIU/ml in reaction buffer (no K1-70) is -6%; the RLU, TBI assay, LH 20 mIU/ml in reaction buffer (no K1-70) was 17300 RLU; the RLU, TBI assay, LH 40 mIU/ml in reaction buffer (no K1-70) was determined as 17400 RLU.

Regarding “thyroid stimulating monoclonal antibody M22”, the % inhibition, TBI assay, M22 0.02 ng/ml was found to be 2%; the % inhibition, TBI assay, M22 0.04 ng/ml stood at 0%; the % inhibition, TBI assay, M22 0.05 ng/ml was -6%; the % inhibition, TBI assay, M22 0.06 ng/ml was -11%. Also, the % inhibition, TBI assay, M22 0.08 ng/ml is -21%; the % inhibition, TBI assay, M22 0.1 ng/ml is -27%; the % inhibition, TBI assay, M22 0.15 ng/ml was -32%; the % inhibition, TBI assay, M22 0.2 ng/ml is -52%. The % inhibition, TBI assay, M22 0.25 ng/ml was -50%; the % inhibition, TBI assay, M22 0.3 ng/ml was -65%; the % inhibition, TBI assay, M22 0.35 ng/ml was -63%; the % inhibition, TBI assay, M22 0.4 ng/ml was -64%. Moreover, the % inhibition, TBI assay, M22 0.6 ng/ml was -66%; the % inhibition, TBI assay, M22 0.8 ng/ml was -73%; the % inhibition, TBI assay, M22 1.2 ng/ml was -83%; the % inhibition, TBI assay, M22 only 100% (0.8 ng/ml M22) is -106%. This substance registered an EC50 of stimulatory activity, TBI assay of 0.16 ng/mL; an EC50 of stimulatory activity, TSI assay of 0.14 ng/mL; an RLU, TBI assay, M22 0.02 ng/ml of 9070 RLU; an RLU, TBI assay, M22 0.04 ng/ml of 9260 RLU. The substance further yielded an RLU, TBI assay, M22 0.05 ng/ml of 9690 RLU; an RLU, TBI assay, M22 0.06 ng/ml of 10100 RLU; an RLU, TBI assay, M22 0.08 ng/ml of 10900 RLU; an RLU, TBI assay, M22 0.1 ng/ml of 11300 RLU. This substance also gave an RLU, TBI assay, M22 0.15 ng/ml of 11700 RLU; an RLU, TBI assay, M22 0.2 ng/ml of 13300 RLU; an RLU, TBI assay, M22 0.25 ng/ml of 13100 RLU; an RLU, TBI assay, M22 0.3 ng/ml of 14300 RLU. The RLU, TBI assay, M22 0.35 ng/ml was determined as 14100 RLU; the RLU, TBI assay, M22 0.4 ng/ml turned out to be 14200 RLU; the RLU, TBI assay, M22 0.6 ng/ml came to 14400 RLU; the RLU, TBI assay, M22 0.8 ng/ml was found to be 15000 RLU. Moreover, the RLU, TBI assay, M22 1.2 ng/ml stood at 15700 RLU; the RUT, TBI assay, M22 only 100% (0.8 ng/ml M22) came to 21200 RUT; the SRR % (TBI), M22 0.02 ng/ml is 61%; the SRR % (TBI), M22 0.04 ng/ml amounted to 95%. Moreover, the SRR % (TBI), M22 0.05 ng/ml was 111%; the SRR % (TBI), M22 0.06 ng/ml stood at 122%; the SRR % (TBI), M22 0.08 ng/ml was found to be 146%; the SRR % (TBI), M22 0.1 ng/ml was 180%. The substance also showed an SRR % (TBI), M22 0.15 ng/ml of 236%; an SRR % (TBI), M22 0.2 ng/ml of 270%; an SRR % (TBI), M22 0.25 ng/ml of 283%; an SRR % (TBI), M22 0.3 ng/ml of 302%. This substance also yielded an SRR % (TBI), M22 0.35 ng/ml of 315%; an SRR % (TBI), M22 0.4 ng/ml of 332%; an SRR % (TBI), M22 0.6 ng/ml of 368%; an SRR % (TBI), M22 0.8 ng/ml of 368%. This substance came in with an SRR % (TBI), M22 1.2 ng/ml of 365%.

With follicle stimulating hormone (ligand), the % inhibition, TBI assay, FSH 116.3 mIU/ml in reaction buffer (no K1-70) was determined as 0%; the % inhibition, TBI assay, FSH 232.6 mIU/ml in reaction buffer (no K1-70) was found to be 1%; the RLU, TBI assay, FSH 116.3 mIU/ml in reaction buffer (no K1-70) was determined as 16500 RLU; the RLU, TBI assay, FSH 232.6 mIU/ml in reaction buffer (no K1-70) came out at 16300 RLU.

On to “thyroid blocking monoclonal antibody K1-70”, for which the % inhibition, TBI assay, 2.5 ng K1-70 (TBI positive) stood at 86%; the % inhibition, TBI assay, K1-70 0.0025 ng/ml is -6%; the % inhibition, TBI assay, K1-70 0.1 ng/ml came to 6%; the % inhibition, TBI assay, K1-70 0.4 ng/ml worked out at 25%. For the same substance, the % inhibition, TBI assay, K1-70 0.6 ng/ml turned out to be 27%; the % inhibition, TBI assay, K1-70 1 ng/ml was found to be 38%; the % inhibition, TBI assay, K1-70 1.5 ng/ml amounted to 55%; the % inhibition, TBI assay, K1-70 1.56 ng/ml is 60%. In addition, the % inhibition, TBI assay, K1-70 5 ng/ml turned out to be 102%; the % inhibition, TBI assay, K1-70 10 ng/ml turned out to be 114%; the % inhibition, TBI assay, K1-70 12.5 ng/ml is 104%; the % inhibition, TBI assay, K1-70 25 ng/ml is 104%. Moreover, the % inhibition, TBI assay, K1-70 50 ng/ml came out at 103%; the % inhibition, TBI assay, K1-70 100 ng/ml was 101%; the % inhibition, TBI assay, K1-70 only 100% (5 ng/ml K1-70) was 94%; the % inhibition, TBI assay, mixture M22:K1-70 10:90 amounted to 77%. For the same substance, the % inhibition, TBI assay, mixture M22:K1-70 20:80 amounted to 51%; the % inhibition, TBI assay, mixture M22:K1-70 30:70 is 27%; the % inhibition, TBI assay, mixture M22:K1-70 50:50 is -37%; the % inhibition, TBI assay, mixture M22:K1-70 60:40 was -59%. For the same substance, the % inhibition, TBI assay, mixture M22:K1-70 90:10 was -98%; the IC50, TBI bioassay is 1.34 ng/mL; the IC50 of TBI assay with CHO-MC4 cells worked out at 1.34 ng/mL; the RLU, TBI assay, 2.5 ng K1-70 (TBI positive) turned out to be 5530 RLU. The RLU, TBI assay, 2.5 ng K1-70 with FSH 116.3 mIU/ml came to 6100 RLU; the RLU, TBI assay, 2.5 ng K1-70 with FSH 232.6 mIU/ml stood at 5810 RLU; the RLU, TBI assay, 2.5 ng K1-70 with LH 20 mIU/ml came to 6100 RLU; the RLU, TBI assay, 2.5 ng K1-70 with LH 40 mIU/ml amounted to 5770 RLU. The same substance came in with an RLU, TBI assay, 2.5 ng K1-70 with hCG 8000 mIU/ml of 6000 RLU; an RLU, TBI assay, 2.5 ng K1-70 with hCG 16000 mIU/ml of 5950 RLU; an RLU, TBI assay, K1-70 0.0025 ng/ml of 16400 RLU; an RLU, TBI assay, K1-70 0.05 ng/ml of 15700 RLU. Also, the RLU, TBI assay, K1-70 0.1 ng/ml came out at 13600 RLU; the RLU, TBI assay, K1-70 0.2 ng/ml worked out at 14100 RLU; the RLU, TBI assay, K1-70 0.4 ng/ml came out at 12800 RLU; the RLU, TBI assay, K1-70 0.6 ng/ml worked out at 12600 RLU. The same substance gave an RLU, TBI assay, K1-70 0.8 ng/ml of 12700 RLU; an RLU, TBI assay, K1-70 1 ng/ml of 11300 RLU; an RLU, TBI assay, K1-70 1.5 ng/ml of 9420 RLU; an RLU, TBI assay, K1-70 2 ng/ml of 7940 RLU. For the same substance, the RLU, TBI assay, K1-70 2.5 ng/ml turned out to be 6620 RLU; the RLU, TBI assay, K1-70 5 ng/ml came to 4010 RLU; the RLU, TBI assay, K1-70 10 ng/ml stood at 2700 RLU; the RUT, TBI assay, K1-70 only 100% (5 ng/ml K1-70) is 2420 RUT. Also, the RUT, TBI assay, mixture M22:K1-70 10:90 came out at 4000 RUT; the RUT, TBI assay, mixture M22:K1-70 20:80 was 6470 RUT; the RUT, TBI assay, mixture M22:K1-70 30:70 worked out at 8650 RUT; the RUT, TBI assay, mixture M22:K1-70 40:60 worked out at 12300 RUT. For the same substance, the RUT, TBI assay, mixture M22:K1-70 50:50 was 14600 RUT; the RUT, TBI assay, mixture M22:K1-70 60:40 is 16700 RUT; the RUT, TBI assay, mixture M22:K1-70 70:30 was 17600 RUT; the RUT, TBI assay, mixture M22:K1-70 80:20 is 19600 RUT. The RUT, TBI assay, mixture M22:K1-70 90:10 is 20400 RUT and the sensitivity of TBI bioassay against TRAb assay is above 20 fold.

The values above are taken from patent publication US20200340991A1.
